Tests used:
Experiment in all cases: cryo-EM structure
[1] = molecular target: D7324-tagged Delta S (soluble SARS-CoV-2 Delta spike, 6P version) (SARS-CoV-2) (UniProt P0DTC2)
[2] = molecular target: His-tagged BA.1 S (soluble SARS-CoV-2 Omicron BA.1 spike, 6P version) (SARS-CoV-2) (UniProt P0DTC2)
[3] = molecular target: StrepII-tagged Wu1 S (soluble SARS-CoV-2 Wuhan-Hu-1 spike, 6P version) (SARS-CoV-2) (UniProt P0DTC2)

Work on “D7324-tagged Delta S (soluble SARS-CoV-2 Delta spike, 6P version) (from UniProt P0DTC2 14-1273) (natural protein)” yielded a stoichiometry N [1] of 3.
“His-tagged BA.1 S (soluble SARS-CoV-2 Omicron BA.1 spike, 6P version) (from UniProt P0DTC2 14-1273) (natural protein)” was tested, and the stoichiometry N [2] was 3.
“StrepII-tagged Wu1 S (soluble SARS-CoV-2 Wuhan-Hu-1 spike, 6P version) (from UniProt P0DTC2 14-1273) (natural protein)” gave a stoichiometry N [3] of 3.

Reference: PMC13132547
